Reference: article PMC6208296, “Redox regulation of pyruvate kinase M2 by cysteine oxidation and S-nitrosation” (Biochemical Journal, 2018)

Legend:
[1] = target: M2 isoform of human pyruvate kinase, wild type (human) (UniProt P14618); experiment: SEC; analytical gel filtration, Superdex 200 PC 3.2/30 in PBS-CM, room temperature; stock of ∼20 mg/ml diluted to 0.1 mg/ml and incubated 1 h without or with 1 mM DTT or 20 μM H2O2; tetramer to monomers, peak areas on a bimodal distribution
[2] = target: M2 isoform of human pyruvate kinase, wild type (human) (UniProt P14618); experiment: SEC; analytical gel filtration, Superdex 200 PC 3.2/30 in PBS-CM, room temperature; 0.1 mg/ml incubated 12 h (equilibrium) without or with 1 mM DTT or 20 μM H2O2; tetramer to monomers, peak areas on a bimodal distribution
[3] = target: Pyruvate kinase M2 (Homo sapiens) (UniProt P14618); experiment: gel filtration; details: cited from earlier work

Chain of M2 isoform of human pyruvate kinase, wild type, P14618 1-531 (enzyme; other documents disagree on this pair) (P14618 whole entry, canonical isoform): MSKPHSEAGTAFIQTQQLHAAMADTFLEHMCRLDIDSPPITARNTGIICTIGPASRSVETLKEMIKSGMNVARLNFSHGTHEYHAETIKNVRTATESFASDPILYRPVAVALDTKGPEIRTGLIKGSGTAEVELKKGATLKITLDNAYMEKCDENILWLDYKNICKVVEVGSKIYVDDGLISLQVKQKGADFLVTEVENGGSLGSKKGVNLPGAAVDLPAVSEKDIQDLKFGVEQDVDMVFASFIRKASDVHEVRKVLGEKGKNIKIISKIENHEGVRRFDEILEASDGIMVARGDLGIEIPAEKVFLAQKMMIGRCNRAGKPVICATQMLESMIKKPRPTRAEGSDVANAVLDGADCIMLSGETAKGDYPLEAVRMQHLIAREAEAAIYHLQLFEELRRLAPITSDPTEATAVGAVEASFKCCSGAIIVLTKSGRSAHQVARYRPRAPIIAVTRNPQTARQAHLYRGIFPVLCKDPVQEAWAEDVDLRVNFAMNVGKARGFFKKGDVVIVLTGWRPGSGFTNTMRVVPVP
Chain of Pyruvate kinase M2 (P14618 2-531): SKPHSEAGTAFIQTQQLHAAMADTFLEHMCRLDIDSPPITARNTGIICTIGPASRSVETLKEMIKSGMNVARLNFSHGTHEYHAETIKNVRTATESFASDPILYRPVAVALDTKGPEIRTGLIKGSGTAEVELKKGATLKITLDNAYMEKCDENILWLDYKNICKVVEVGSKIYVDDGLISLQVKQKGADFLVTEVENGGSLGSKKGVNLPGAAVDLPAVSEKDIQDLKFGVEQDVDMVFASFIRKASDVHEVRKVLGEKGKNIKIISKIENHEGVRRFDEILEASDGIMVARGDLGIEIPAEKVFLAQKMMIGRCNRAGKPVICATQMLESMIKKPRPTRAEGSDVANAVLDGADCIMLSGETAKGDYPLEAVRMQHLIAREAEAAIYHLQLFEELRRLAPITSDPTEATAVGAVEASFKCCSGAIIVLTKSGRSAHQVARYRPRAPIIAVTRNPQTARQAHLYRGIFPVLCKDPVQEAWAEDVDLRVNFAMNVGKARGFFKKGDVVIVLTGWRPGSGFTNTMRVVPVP

Row | percent tetramer (20 μM H2O2, 1 h) [1] | percent tetramer (1 mM DTT, 1 h) [1] | percent tetramer (no DTT, no H2O2, 1 h) [1] | percent tetramer (20 μM H2O2, 12 h) [2] | percent tetramer (1 mM DTT, 12 h) [2] | percent tetramer (no DTT, no H2O2, 12 h) [2] | Substance | Kd [3]
1 | 63% | 64% | 62% | 42% | 71% | 55% | M2 isoform of human pyruvate kinase, wild type, P14618 1-531 (enzyme; other documents disagree on this pair) | –
2 | – | – | – | – | – | – | Pyruvate kinase M2 (from UniProt P14618) | 900 nM
